The values that follow are results of earlier work, collected in patent US20260263353A1, “PROGRAMMABLE DRUG-DEVICE MICRONEEDLE SYSTEM FOR THE DELIVERY AND MONITORING OF DIABETES AND OBESITY MEDICATIONS” (ALJ Creative Works, LLC, priority 2023, published 2026).

For this series the following is noted: once weekly dosing at clinically relevant doses; literature reference [26].

On to Insulin ICODEC, for which the half-life entry is on record as “about 196 hours”; the safety and tolerability result was “safe and well-tolerated”.
